Measured values as given in PMC11211068 (The Journal of Experimental Medicine, 2024).

What was measured:
[1] = molecular target: T1, H1 HA from A/Michigan/45/2015 H1N1, recombinant (Immune Technology) (Influenza A virus A/Michigan/45/2015 …, UniProt A0A1J0CXU0, strain); assay: ELISA
[2] = molecular target: H1 HA from A/Solomon Islands/3/2006 H1N1, recombinant (IRR FR-67) (Influenza A virus A/Solomon …, UniProt A7Y8I1, strain); assay: ELISA
[3] = molecular target: H1 HA from A/Brisbane/59/2007 H1N1, recombinant (IRR FR-65) (Influenza A virus A/Brisbane/59/2007 …, UniProt D5F1Q8, strain); assay: ELISA
[4] = molecular target: H1 HA from A/Norway/3206-3/2009 H1N1, recombinant (IRR FR-697) (Influenza A virus A/Norway/3206-3/2009 …, UniProt C3W5S1, strain); assay: ELISA
[5] = molecular target: H1 HA from A/California/04/2009 H1N1pdm09, recombinant (Immune Technology) (Influenza A virus A/California/04/2009 …, UniProt C3W5S1, strain); assay: ELISA
[6] = molecular target: T1, H1 HA from A/Michigan/45/2015 H1N1, …; assay: BLI

Measured: binding result

B1: 05.GC.w13.02 (antibody, V domains shown)
VH: QVQLVQSGTEVKKPGSSVKVSCKASGVTFSSYAMSWVRQAPGQGLEWMGGFIPILGTANYAQKFQGRLTITADGLTGTVYMELSRLRSEDTAVYYCAREVTWKGASIGVLGIWGQGTMVSVSA
VL: DIQMTQSPSSLSASVGDRVIITCRANQSIGGYLNWYQQKPGKAPNLLIFTASTLQSGVPSRFSGGGSGTDFTLTISSLQPEDFATYYCQQNYNTPRTFGQGTKVDIK
not listed: [6]
binds: all other assays above

B2: 05.GC.w13.02 Fab, His6 tag removed with thrombin (Fab, V domains shown)
VH: QVQLVQSGTEVKKPGSSVKVSCKASGVTFSSYAMSWVRQAPGQGLEWMGGFIPILGTANYAQKFQGRLTITADGLTGTVYMELSRLRSEDTAVYYCAREVTWKGASIGVLGIWGQGTMVSVSA
VL: DIQMTQSPSSLSASVGDRVIITCRANQSIGGYLNWYQQKPGKAPNLLIFTASTLQSGVPSRFSGGGSGTDFTLTISSLQPEDFATYYCQQNYNTPRTFGQGTKVDIK
binds: [6]

B3: 05.GC.w13.01 (antibody, V domains shown)
VH: QVQLVQSGAEVKKPGSSVKVSCEASGVTFSSYAVSWVRQAPGQGLEWMGGIIPIVGTANYAQKFQGRVTITADGLTSTVYMELSRLRSEDTAVYFCAREATWKGSSIGVLGIWGQGTMVTVSA
VL: DIQMTQSPSSLSASVGDRVTITCRASQSISDYLNWYQQKPGKAPSLLIFSASTLQSGVPSRFSGSGSGTDFTLTISSLQPEDFATYYCQQNYNTPRTFGQGTKVEIK
not listed: [6]
binds: all other assays above

B4: 05.GC.w2.3C10 (antibody, V domains shown)
VH: EVQLVQSGAEVKKPGSSVRVSCKASGGTFSAISWVRQAPGQGLEWMGGIIPVFGTANYAQKFQGRVTITADDSTSTAYMEVSSLRSDDTAVYYCAREETWKGATIGVMGIWGQGTMVTVSS
VL: DIQMTQSPSSLSASVGDRVTITCRASQSISSYLNWYQHKPGKAPKLLIFTASNLQSGVPSRFSGGGSGTDFTLTISSLQPEDFATYYCQQSYTSPRTFGQGTKVEIK
binds: [1] | [2] | [3]
